Consider five proteins from patent US20210380960.

The target of data set [1] is T1, Peptide 1: enriched in negatively charged residues.
T1 chain: EEDEKRRKYTSWNSE

In data set [2] the target is T2, Peptide 4: enriched in glycines.
T2 chain: GGGGNENRYTSWNSE

Data set [3] addresses T3, Peptide 7 (random peptide).
T3 chain: GISEQFKTNVLREYA

The target in data set [4] is T4, Peptide 2: enriched in hydrophobic residues.
T4 chain: LMLLNENRYTSWNSE

Data set [5] addresses T5, Peptide 5: enriched with aromatic residues.
T5 chain: YFLMNENRYTSWNSE

B1: PhTET1 (protein)
chain: MMSMIEKLKKFTQIPGISGYEERIREEIIREIKDFADYKVDAIGNLIVELGEGEERILFMAHMDEIGLLITGITDEGKLRFRKVGGIDDRLLYGRHVNVVTEKGILDGVIGATPPHLSLERDKSVIPWYDLVIDIGAESKEEALELVKPLDFAVFKKHFSVLNGKYVSTRGLDDRFGVVALIEAIKDLVDHELEGKVIFAFTVQEEVGLKGAKFLANHYYPQYAFAIDSFACCSPLTGDVKLGKGPVIRAVDNSAIYSRDLARKVWSIAEKNGIEIQIGVTGGGTDASAFQDRSKTLALSVPIKYLHSEVETLHLNDLEKLVKLIEALAFEL
In the case of B1, in data set [1], the “hydrolysis of the peptide, RP-HPLC after 15 min” value is given as “no hydrolysis activity is observed”.

B2: PhTET4 (protein)
chain: MERIVKILREILEIPSPTGYTKEVMSYLEKFLKENEVNFYYTNKGALIAGNHPKPELVVIAHVDTLGAMVKEILPDGHLAFSRIGGLVLPTFEGEYCTIITRKGKKFRGTLLLRNPSAHVNREVGKKERKEENMYIRLDELVEKREDTEKLGIRPGDFIAFDPKFEYVNGFVKSHFLDDKASVAAILDLIIDMKDELEKYPVAFFFSPYEEVGHGGSAGYPPTTKELLVVDMGVVGEGVSGKETAVSIAAKDTTGPYDYDMTNRLIELAEENNIPYVVDVFPYYGSDGSAALRAGWDFRVALIGPGVHASHGMERTHVKGLLATKELIRAYIKWKG
Consider B2, for which the “hydrolysis of the peptide, RP-HPLC after 15 min” value in data set [2] is “no hydrolysis activity is observed”. In data set [3], the “hydrolysis of peptide 7 incorporated into a casein hydrolyzate, RP-HPLC” value was “only the peptide of interest is hydrolysed by the aminopeptidase PhTET4 and, this, almost completely”; the “kinetics of hydrolysis of the peptide, RP-HPLC after 5, 15 and 30 min” value is given as “only the hydrolysis of the first glycine residue was observed”.

B3: PhTET2 (protein)
chain: MEVRNMVDYELLKKVVEAPGVSGYEFLGIRDVVIEEIKDYVDEVKVDKLGNVIAHKKGEGPKVMIAAHMDQIGLMVTHIEKNGFLRVAPIGGVDPKTLIAQRFKVWIDKGKFIYGVGASVPPHIQKPEDRKKAPDWDQIFIDIGAESKEEAEDMGVKIGTVITWDGRLERLGKHRFVSIAFDDRIAVYTILEVAKQLKDAKADVYFVATVQEEVGLRGARTSAFGIEPDYGFAIDVTIAADIPGTPEHKQVTHLGKGTAIKIMDRSVICHPTIVRWLEELAKKHEIPYQLEILLGGGTDAGAIHLTKAGVPTGALSVPARYIHSNTEVVDERDVDATVELMTKALENIHELKI
For B3, the “hydrolysis of the peptide, RP-HPLC after 15 min” value in data set [4] is “the first residues of the peptide were hydrolyzed more quickly in the presence of PhTET3 than in the presence of PhTET2”.

B4: PhTET3 (protein)
chain: MDLKGGESMVDWKLMQEIIEAPGVSGYEHLGIRDIVVDVLKEVADEVKVDKLGNVIAHFKGSSPRIMVAAHMDKIGVMVNHIDKDGYLHIVPIGGVLPETLVAQRIRFFTEKGERYGVVGVLPPHLRRGQEDKGSKIDWDQIVVDVGASSKEEAEEMGFRVGTVGEFAPNFTRLNEHRFATPYLDDRICLYAMIEAARQLGDHEADIYIVGSVQEEVGLRGARVASYAINPEVGIAMDVTFAKQPHDKGKIVPELGKGPVMDVGPNINPKLRAFADEVAKKYEIPLQVEPSPRPTGTDANVMQINKEGVATAVLSIPIRYMHSQVELADARDVDNTIKLAKALLEELKPMDFTP
For B4, in data set [3], the “hydrolysis of peptide 7 incorporated into a casein hydrolyzate, RP-HPLC” value is “the peptide of interest is not very hydrolyzed”. Further, in data set [5], the “hydrolysis of the peptide, RP-HPLC after 15 min (PhTET3 alone, 5% experiment)” value is given as “there is a strong accumulation of the peptide pep-1 after the 15 minutes of incubation of the aminopeptidase with the substrate peptide”; the “hydrolysis of the peptide, RP-HPLC after 15 min at 40° C.” value is “a significant decrease in hydrolysis is observed. In fact, in this case, only the peptide pep-1 is visible and in very small quantity”; the “hydrolysis of the peptide, RP-HPLC after 15 min at 60° C.” value is reported as “there is an accumulation of the peptide pep-1 while the intact substrate peptide is no longer present in the medium”; the “hydrolysis of the peptide, RP-HPLC and mass spectrometry” value is reported as “significant accumulation of peptides whose tyrosine at the N-terminal end has been hydrolyzed”.

B5: MjTET (protein)
chain: MSVVEYLKKLSKLHGISGREDSVREFMKKELEKYCDSVEIDNFGNLIAKRGNKGKKIMIAAHMDEIGLMVKYIDDNGFLKFTKIGGIYDPTILNQKVVVHGSKGDLIGVLGSKPPHRMKEEEKTKIIKYEDMFIDIGAESREEAIEMGVNIGTWVSFLSEVYDLGKNRLTGKAFDDRVGCAVLLEVMKRLSEEDIDCQVYAVGTVQEEVGLKGARVSAFKINPDVAIALDVTIAGDHPGIKKEDAPVDLGKGPVVGIVDASGRGLIAHPKVLDMIKAVSEKYKIDVQWEVGEGGTTDATAIHLTREGIPTGVISVPARYIHTPVEVIDKRDLEKTVELVYNCIKEVNNFF
For the protein B5, in data set [3], the “hydrolysis of peptide 7 incorporated into a casein hydrolyzate, RP-HPLC” value is given as “the peptide of interest is not very hydrolyzed”; the “kinetics of hydrolysis of the peptide, RP-HPLC after 5, 15 and 30 min” value is “we observe, in addition to the peptide pep-1, the peptides pep-2 and pep-3, and what corresponds to pep-4 ... between 15 and 30 min, the concentration of the substrate peptide pep-0 does not seem to have decreased”. Besides, in data set [5], the “hydrolysis of the peptide, RP-HPLC after 15 min at 40° C.” value is “all the intermediate peptides are visible as well as the final product pep-4, and there is only a significant slowdown in hydrolysis”; the “hydrolysis of the peptide, RP-HPLC after 15 min at 60° C.” value was “part of the intact peptide is still present in the reaction medium, while the residues of the hydrolysis products are present in almost equivalent amounts. There is a slight accumulation of the final hydrolysis product, the peptide pep-4”.
